PMC7058617 (Signal Transduction and Targeted Therapy, 2020)

B1: Humanized 4C1 (h4C1) monoclonal antibody (antibody, V domains shown)
VH: QVQLVQSGAEVKKPGASVKVSCKASGYTFTSYVMHWVRQAPGQRLEWMGYINPYNDGTKYNEKFKGKATLTSDKSTSTAYMELSSLRSEDTAVYYCARTEGHFYVSWFAYWGQGTLVTVSS
VL: DIQMTQSPSSLSASVGDRVTISCRTSQDISNYLNWYQQKPGKAPKLLIYYTSRLHSGVPSRFSGSGSGTDYTFTISSLQPEDIATYYCQQGNTLPFTFGQGTKLEIK
notes: Humanised from the murine mAb m4C1 (raised in mice immunised with human CD47); also called h4C1 mAb

What was measured:
[1] = target: human CD47 extracellular domain (CD47-ECD) (human) (UniProt Q08722); experiment: SPR; settings: bispecific antibody
[2] = target: PD-L1 extracellular domain (PD-L1-ECD) (UniProt Q9NZQ7); experiment: SPR; settings: bispecific antibody
[3] = target: T1, human CD47 extracellular domain (CD47-ECD) (human, UniProt Q08722, N-linked glycosylation observed at all five potential sites in the complex structure (N32 and N55 among them)); experiment: SPR; h4C1 and CD47-ECD proteins (WT, N32A, N55A); who was immobilised and the conditions are not given; settings: both partners purified
T1 construct: CD47, human, extracellular domain; also called WT CD47-ECD; human CD47-ECD antigen
T1 sequence (Q08722 19-141): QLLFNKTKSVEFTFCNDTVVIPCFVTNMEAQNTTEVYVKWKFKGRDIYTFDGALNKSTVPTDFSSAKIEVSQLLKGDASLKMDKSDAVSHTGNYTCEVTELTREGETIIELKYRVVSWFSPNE

Sequence of human CD47 extracellular domain (CD47-ECD) (human) (Q08722 19-141): as above
Sequence of PD-L1 extracellular domain (PD-L1-ECD) (Q9NZQ7 19-238): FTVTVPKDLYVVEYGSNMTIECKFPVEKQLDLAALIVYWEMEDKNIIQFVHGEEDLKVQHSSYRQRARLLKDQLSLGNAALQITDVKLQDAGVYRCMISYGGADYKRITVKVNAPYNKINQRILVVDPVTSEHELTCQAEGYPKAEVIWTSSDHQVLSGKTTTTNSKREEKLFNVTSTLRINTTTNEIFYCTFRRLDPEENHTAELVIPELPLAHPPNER

Molecule | Kd [1] [nM] | Kd [2] [nM] | Kd [3] [nM]
CD47/PD-L1 dual-targeting bispecific antibody (DVD-Ig format) (from UniProt P01861) | 17.4 | 0.74 | 
B1 |  |  | 0.85
